How the values were obtained:
OV-10-0050 PDX tumors = test: HGSOC ovarian PDX model efficacy (CLU-NRG1); assay type: in vivo, mice; parameters: average tumor volume at the time of the last treatment: unit not given beside the values; conditions: for average tumor volume at the time of the last treatment: day 27
Excerpt: IHC characterization of the OV-10-0050 PDX model (FIG. 6A). H&E staining, WT1, and TP53 IHC (left to right). […] (FIG. 6B). Treatment was terminated on day 27 and animals were monitored for tumor regrowth until tumors reached maximum allowable size or until 90 days after treatment initiation. Results represent the mean tumor volume ±SEM. A zoom-in view on tumor volumes during the last 40 days of monitoring of seribantumab-treated groups (right). […] Change in the volume of individual tumors (day 27 vs. volume at start of treatment) (FIG. 6C).
Crushed PDX tumor samples were mixed with Matrigel (50%) and injected into the subcutaneous flank of 6-week-old female NSG (LUAD-0061AS3) or Balb/c nude (OV-10-0050) mice. When tumors reached approximately 100-150 mm3, mice were randomly assigned to groups of 5-8 and treatment was commenced. There were 2 mice per group with bilateral flank tumors for the protein phosphorylation/expression study in the LUAD-0061AS3 PDX model. Drugs were administered once, and then tumors were collected at 2, 24, and 168 hours posttreatment. Afatinib was administered by oral gavage once daily as a suspension (in 0.5% methylcellulose-0.4% Tween-80) on a 5-days-on and 2-days-off schedule. […] Mice were observed daily throughout the treatment period for signs of morbidity and mortality. Tumor length and width and animal weights were measured twice weekly. Tumor volume was calculated using the empirical formula V=length×width 2×0.52. The percentage change in tumor volume of each tumor was calculated using the formula [(V2−V1)/V1)]×100, where V1 is the starting tumor volume and V2 is the final tumor volume.
RT-PCR confirmed the presence of the CLU-NRG1 fusion. Xenograft tissue morphology and IHC markers (positive for WT1 and strong nuclear staining for TP53) were consistent with HGSOC histology (FIG. 6A; Kobel M, et al., Int. J. Gynecol. Pathol. 2016; 35:430-41). […] As with the above experiments in the NSCLC PDX model, the doses of seribantumab used here were lower than the dose that is used in patients. Treatment was terminated at day 27 and tumor growth was monitored for an additional 63 days (90 days after initiation of treatment or once tumors reached the maximum allowable size). The tumor volume as a function of time is illustrated in FIG. 6B, and the AUC was computed for each group to compare tumor volumes between groups at the last date of treatment. […] Forty-one days after treatment began, mice bearing vehicle- and afatinib-treated tumors were sacrificed because of the high tumor burden.

[1] = system: EGFR, HER2, HER3, HER4, PI3K, mTOR and MAPK pathways in LUAD-0061AS3 cells; test: Western blotting of protein phosphorylation; assay type: cell-based, human; conditions: serum-starved, 1 hour
Procedure: (§1) Whole-cell extracts were prepared after all treatments and subjected to SDS-PAGE, followed by immunoblotting for the phosphorylated (p) or total (t) proteins shown in each panel. All Western blotting studies were conducted at least two times and representative immunoblots of phosphorylated (p) and total (t) proteins are shown.
(§2) These events likely culminate in inhibition of growth and impaired survival.

[2] = system: EGFR, HER2, HER3, HER4, PI3K, mTOR and MAPK pathways in HBECp53-CD74-NRG1 cells; test: Western blotting of protein phosphorylation; assay type: cell-based, human; conditions: serum-starved, 1 hour
Procedure: as §1, §2

[3] = system: EGFR, HER2, HER3, HER4, downstream signaling, apoptosis and cell-cycle proteins in MDA-MB-175-VII cells; test: Western blotting of protein phosphorylation and expression; assay type: cell-based, human
Procedure: as §1, §2
As observed with phosphor-ylation of some proteins, cyclin D1 level began to be restored by 12 hours (FIG. 4D).

B1: seribantumab: anti-ERBB3 (HER3) fully human monoclonal antibody; heavy and light chains SEQ ID NOs: 12 and 13 (antibody)
heavy: EVQLLESGGGLVQPGGSLRLSCAASGFTFSHYVMAWVRQAPGKGLEWVSSISSSGGWTLYADSVKGRFTISRDNSKNTLYLQMNSLRAEDTAVYYCTRGLKMATIFDYWGQGTLVTVSSASTKGPSVFPLAPCSRSTSESTAALGCLVKDYFPEPVTVSWNSGALTSGVHTFPAVLQSSGLYSLSSVVTVPSSNFGTQTYTCNVDHKPSNTKVDKTVERKCCVECPPCPAPPVAGPSVFLFPPKPKDTLMISRTPEVTCVVVDVSHEDPEVQFNWYVDGVEVHNAKTKPREEQFNSTFRVVSVLTVVHQDWLNGKEYKCKVSNKGLPAPIEKTISKTKGQPREPQVYTLPPSREEMTKNQVSLTCLVKGFYPSDIAVEWESNGQPENNYKTTPPMLDSDGSFFLYSKLTVDKSRWQQGNVFSCSVMHEALHNHYTQKSLSLSPGK
light: QSALTQPASVSGSPGQSITISCTGTSSDVGSYNVVSWYQQHPGKAPKLIIYEVSQRPSGVSNRFSGSKSGNTASLTISGLQTEDEADYYCCSYAGSSIFVIFGGGTKVTVLGQPKAAPSVTLFPPSSEELQANKATLVCLVSDFYPGAVTVAWKADGSPVKVGVETTKPSKQSNNKYAASSYLSLTPEQWKSHRSYSCRVTHEGSTVEKTVAPAECS
With B1 the “average tumor volume at the time of the last treatment” value (from here on “average tumor volume at the time”) (OV-10-0050 PDX tumors; 1 mg seribantumab twice weekly) was 1.3±0.3, the “average tumor volume at the time” value (OV-10-0050 PDX tumors; 2.5 mg seribantumab twice weekly) was 1.9±0.6 and the “average tumor volume at the time” value (OV-10-0050 PDX tumors; 5 mg seribantumab twice weekly) was 17.9±14.5. The “average tumor volume at the time” value (OV-10-0050 PDX tumors; 10 mg seribantumab twice weekly) was 2.1±0.6, the “day on which tumors started to regrow” value (OV-10-0050 PDX tumors; 1, 2.5 and 5 mg seribantumab groups, treatment terminated day 27) was no more than 73 days and the tumor regression (OV-10-0050 PDX tumors; dosage lower than that used in human trials) was 100%. For the same molecule, the “tumor regrowth after cessation of treatment” value (OV-10-0050 PDX tumors; highest dose of seribantumab) was “blocked tumor regrowth after cessation of treatment”, the tumor growth (OV-10-0050 PDX tumors; seribantumab 1, 2.5, 5, 10 mg twice weekly) was “significant tumor shrinkage at all doses tested” and the “tumor growth after treatment was stopped” value (OV-10-0050 PDX tumors; seribantumab, monitoring after cessation) was “largely repressed for 63 days”. The “tumors that started to regrow at the end of the study” value (OV-10-0050 PDX tumors; two highest dose groups of seribantumab) was “one of eight”, the “phosphorylation of EGFR, HER2, HER3, HER4, AKT, and STAT3” value [1] was “almost complete inhibition” and the “phosphorylation of ERK1/2” value [1] was “less sensitive”. For the same molecule, the HER3 phosphorylation [2] was “completely inhibited”, the “phosphorylation of AKT, p70S6K, and STAT3” value [2] was “almost completely inhibited” and the “phosphorylation of AKT over time” value ([3]; 2 mmol/L seribantumab, up to 24 hours) was “remained completely inhibited for the entire 24-hour treatment period”. For the same molecule, the “expression of proapoptotic proteins cleaved-PARP and PUMA” value ([3]; seribantumab, 6-24 hours) was “elevated”, the “level of cyclin D1” value ([3]; seribantumab, up to 24 hours) was “undetectable by 6 hours” and the “time to full inhibition of phosphorylation of HER3, HER4, and downstream signaling” value ([3]; seribantumab, up to 24 hours) was 30 min. The “phosphorylation of HER3, HER2, EGFR, and HER4” value ([3]; serum-starved, 3 hours) was “fully inhibited”.
